Experimental findings from PMC8720280 (2021) are described below.

The target of assay [1] is T1, WT DR5 recombinant protein (IgG4-Fc tagged extracellular domain of human DR5) (human, UniProt O14763-1 56-210, biotinylated with EZ-Link Sulfo-NHS-SS-Biotin for BLI). The experiment in a line: ELISA.
In assay [2] the target is T1, WT DR5 recombinant protein (IgG4-Fc …). The experiment in a line: BLI.
Assay [3] shares this target. The experiment in a line: BLI. This is another data set of the same source.
The target is the same in assay [4]. The experiment in a line: ELISA. The source holds these as a separate data set.
A further assay has as its target RKCSR DR5. As to the kind of experiment: BLI.
For a further assay, the target named is RKCAR DR5. As to the kind of experiment: BLI.
The target of a further assay is Monkey DR5. As to the kind of experiment: BLI.
Another assay addresses Chimp DR5. The experiment in a line: BLI.

B1: KMTR2 (antibody, V domains shown)
VH: QVQLVQSGAEMKKPGASVKVSCKTSGYTFTNYKINWVRQAPGQGLEWMGWMNPDTDSTGYPQKFQGRVTMTRNTSISTAYMELSSLRSEDTAVYYCARSYGSGSYYRDYYYGMDVWGQGTTVTVSS
VL: EIVLTQSPATLSLSPGERATLSCRASQSVSSYLAWYQQKPGQAPRLLIYDASNRATGIPARFSGSGSGTDFTLTISSLEPEDFAVYYCQQRSNWPLTFGGGTKVEIK
Regarding B1, the Kd in assay [1] is 88 pM; in assay [2], less than 1 pM.

B2: Lexatumumab (antibody, V domains shown)
VH: EVQLVQSGGGVERPGGSLRLSCAASGFTFDDYGMSWVRQAPGKGLEWVSGINWNGGSTGYADSVKGRVTISRDNAKNSLYLQMNSLRAEDTAVYYCAKILGAGRGWYFDLWGKGTTVTVSS
VL: SSELTQDPAVSVALGQTVRITCQGDSLRSYYASWYQQKPGQAPVLVIYGKNNRPSGIPDRFSGSSSGNTASLTITGAQAEDEADYYCNSRDSSGNHVVFGGGTKLTVL
For the molecule B2, the equilibrium dissociation constant (Kd) is 81 pM in assay [1]; 37.6 pM in assay [3]; 32 pM in assay [4]; 215 pM with RKCSR DR5; 266 pM with RKCAR DR5; 14 pM with Monkey DR5. Moreover, the Kd with Chimp DR5 was less than 1 pM; in assay [2], 519 pM.
